The numbers were not newly measured in PMC4773801, which cites them from elsewhere.

For the data set, the target named is bee venom group III sPLA2 (Apis mellifera) (UniProt P00630).
Chain of UniProt P00630 (P00630 34-167): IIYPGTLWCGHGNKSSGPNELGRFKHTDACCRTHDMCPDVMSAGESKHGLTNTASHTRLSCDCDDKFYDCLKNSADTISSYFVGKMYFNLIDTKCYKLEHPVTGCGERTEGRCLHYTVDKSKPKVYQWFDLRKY

The term Kd denotes the equilibrium constant for the complex coming apart. Regarding “mannose receptor CD206 (from UniProt P22897)”, the Kd is 4.79 µM.
